The text below walks through data of the Immune Epitope Database (IEDB).

pIC50, pKd: −log10 of the molar value.

The target of one experiment is HLA-B*08:02. The experiment in a line: IEDB peptide-MHC binding, purified MHC/direct/fluorescence; filed as Kd, often an IC50 or EC50 that approximates it; ≥ and ≤ were set here for values at or beyond the usual limits of such assays.
In experiment [1] the target is HLA-A*02:01. Briefly: IEDB peptide-MHC binding, purified MHC/competitive/fluorescence; filed as Kd, often an IC50 or EC50 that approximates it; ≥ and ≤ were set here for values at or beyond the usual limits of such assays.
For a further experiment, the target named is HLA-A*02:17. Briefly: IEDB peptide-MHC binding, purified MHC/competitive/radioactivity; filed as Kd, often an IC50 or EC50 that approximates it; ≥ and ≤ were set here for values at or beyond the usual limits of such assays.
For experiment [2], the target named is HLA-A*02:01. The experiment is described as above.
In experiment [3] the target is HLA-B*15:01. Described as above. The conditions noted are these: source organism: Dengue virus 3 Martinique/1243/1999.
In the next experiment the target is HLA-A*02:06. The description is as above.
The target in a further experiment is HLA-B*08:01. Described as above.
For a further experiment, the target named is HLA-B*40:01. The experiment in a line: IEDB peptide-MHC binding, purified MHC/competitive/fluorescence; filed as Kd, often an IC50 or EC50 that approximates it; ≥ and ≤ were set here for values at or beyond the usual limits of such assays.
For experiment [4], the target named is HLA-A*02:03. Briefly: IEDB peptide-MHC binding, purified MHC/competitive/radioactivity; filed as Kd, often an IC50 or EC50 that approximates it; ≥ and ≤ were set here for values at or beyond the usual limits of such assays.
For another experiment, the target named is HLA-B*07:02. The experiment in a line: IEDB peptide-MHC binding, purified MHC/competitive/fluorescence; ≥ and ≤ were set here for values at or beyond the usual limits of such assays. The conditions noted are these: source organism: Zaire ebolavirus.
The next experiment addresses HLA-B*58:01. Briefly: IEDB peptide-MHC binding, purified MHC/competitive/fluorescence; filed as Kd, often an IC50 or EC50 that approximates it; ≥ and ≤ were set here for values at or beyond the usual limits of such assays.
Experiment [5] concerns the target HLA-A*26:01. The experiment is described as above.
The target of experiment [6] is HLA-A*03:01. The description is as above. Conditions: source organism: Yersinia pestis Nepal516.
Experiment [7] addresses HLA-A*01:01. Described as above. Conditions: source organism: Yersinia pestis Nepal516.
For the next experiment, the target named is HLA-A*32:01. The experiment in a line: IEDB peptide-MHC binding, purified MHC/competitive/radioactivity; filed as Kd, often an IC50 or EC50 that approximates it; ≥ and ≤ were set here for values at or beyond the usual limits of such assays. Conditions: source organism: Dengue virus 3 Singapore/8120/1995.
The target in experiment [8] is HLA-A*02:01. Briefly: IEDB peptide-MHC binding, purified MHC/competitive/fluorescence; ≥ and ≤ were set here for values at or beyond the usual limits of such assays. Conditions: source organism: Zaire ebolavirus.
Another experiment concerns the target HLA-A*24:02. The description is as above. The conditions noted are these: source organism: Zaire ebolavirus.
Another experiment addresses HLA-B*39:01. Briefly: IEDB peptide-MHC binding, purified MHC/competitive/fluorescence; filed as Kd, often an IC50 or EC50 that approximates it; ≥ and ≤ were set here for values at or beyond the usual limits of such assays.
Experiment [9] deals with HLA-B*15:01. The experiment is described as above. The conditions noted are these: source organism: Yersinia pestis Nepal516.
A further experiment addresses HLA-C*06:02. Briefly: IEDB peptide-MHC binding, purified MHC/direct/fluorescence; filed as Kd, often an IC50 or EC50 that approximates it; ≥ and ≤ were set here for values at or beyond the usual limits of such assays. Conditions: source organism: Burkholderia mallei ATCC 23344.
The target in experiment [10] is HLA-A*02:03. Described as above. The conditions noted are these: source organism: Lechiguanas virus.
The next experiment addresses HLA-A*02:12. The experiment is described as above. Conditions: source organism: Lechiguanas virus.
The target of a further experiment is HLA-A*68:02. The experiment is described as above. The conditions noted are these: source organism: Lechiguanas virus.
The next experiment addresses HLA-A*23:01. The experiment is described as above. Conditions: source organism: Lechiguanas virus.
The next experiment addresses HLA-A*02:19. Described as above. Conditions: source organism: Lechiguanas virus.
A further experiment deals with HLA-A*24:03. Described as above. The conditions noted are these: source organism: Lechiguanas virus.
Experiment [11] deals with HLA-A*03:01. The experiment is described as above. The conditions noted are these: source organism: Lechiguanas virus.
For experiment [12], the target named is HLA-A*01:01. Described as above. Conditions: source organism: Neembucu hantavirus.
In another experiment the target is HLA-B*27:03. Briefly: IEDB peptide-MHC binding, purified MHC/competitive/fluorescence; filed as Kd, often an IC50 or EC50 that approximates it; ≥ and ≤ were set here for values at or beyond the usual limits of such assays. The conditions noted are these: source organism: Neembucu hantavirus.
In another experiment the target is HLA-B*15:17. The experiment is described as above. The conditions noted are these: source organism: Neembucu hantavirus.
The target of the next experiment is HLA-B*51:01. Described as above. The conditions noted are these: source organism: Neembucu hantavirus.
In another experiment the target is HLA-B*46:01. The description is as above. Conditions: source organism: Neembucu hantavirus.
The target of a further experiment is HLA-B*18:01. The description is as above. The conditions noted are these: source organism: Neembucu hantavirus.
For a further experiment, the target named is HLA-B*57:01. Described as above. Conditions: source organism: Neembucu hantavirus.
Experiment [13] has as its target HLA-B*15:01. The experiment in a line: IEDB peptide-MHC binding, purified MHC/direct/fluorescence; filed as Kd, often an IC50 or EC50 that approximates it; ≥ and ≤ were set here for values at or beyond the usual limits of such assays. The conditions noted are these: source organism: Mycobacterium tuberculosis str. Haarlem.
In experiment [14] the target is HLA-A*26:01. The experiment in a line: IEDB peptide-MHC binding, purified MHC/competitive/radioactivity; filed as Kd, often an IC50 or EC50 that approximates it; ≥ and ≤ were set here for values at or beyond the usual limits of such assays. Conditions: source organism: Dengue virus 3 Martinique/1243/1999.
[15] abbreviates: source organism: Giardia lamblia ATCC 50803.
Where [16] appears, read: source organism: Dengue virus 3 Martinique/1243/1999.
Setting [17] is: source organism: Dengue virus 2 Jamaica/1409/1983.
[18] abbreviates: source organism: Dengue virus 1 Singapore/S275/1990.
Where [19] appears, read: source organism: Yersinia pestis Nepal516.
Setting [20] is: source organism: Dengue virus 3 China/80-2/1980.
Where [21] appears, read: source organism: Salmonella enterica subsp. enterica serovar Typhi.
Where [22] appears, read: source organism: Dengue virus 4 Philippines/H241/1956.
Setting [23] is: source organism: Burkholderia mallei ATCC 23344.
Setting [24] is: source organism: Escherichia coli 101-1.
Setting [25] is: source organism: Neembucu hantavirus.
[26] abbreviates: source organism: Dengue virus 2 Thailand/NGS-C/1944.
Setting [27] is: source organism: Dengue virus 2 16681-PDK53.

As a reminder, the pKd is the Kd on a negative log10 scale, so that one unit is a factor of ten. One may read the pIC50 as the negative decadic logarithm of the IC50, by convention in mol/L.

YARLRKEVL: the figures for the pKd with HLA-B*08:02 (setting [15]) and with HLA-A*02:01 [1] (setting [15]) were 6.46 and no more than 4.70, respectively.

Take YQLWTALISL: the pKd with HLA-A*02:17 (setting [16]) is 6.98; in the experiment with HLA-A*02:01 [2] (setting [16]), 7.73; with HLA-B*15:01 [3] it was 8.25; with HLA-A*02:06 (setting [16]) it was 8.76; with HLA-B*08:01 (setting [16]), 5.88.

Sequence IELITTIGF had a pKd in the experiment with HLA-B*40:01 (source organism: Bacillus cereus 03BB102) of 7.27.

For the sequence AIYGAAFSGV, the pKd is 8.07 in the experiment with HLA-A*02:03 [4] (setting [17]), 6.20 with HLA-A*02:17 (setting [17]), 8.98 with HLA-A*02:01 [2] (setting [17]) and 8.34 in the experiment with HLA-A*02:06 (setting [17]).

In the case of LLFKTSVGV, the results for the pKd in the experiment with HLA-A*02:03 [4] (setting [18]), with HLA-A*02:17 (setting [18]) and with HLA-A*02:01 [2] (setting [18]) were 8.04, 7.04 and 8.49, respectively.

In turn, LPAAPDGIR gave a pIC50 with HLA-B*07:02 of 4.26.

Take RTLDTLALY: the pKd is 8.08 in the experiment with HLA-B*58:01 (setting [19]), 5.35 in the experiment with HLA-A*26:01 [5] (setting [19]), 6.88 in the experiment with HLA-A*03:01 [6] and 5.92 in the experiment with HLA-A*01:01 [7].

For the sequence VLFTFVLLL, the pKd with HLA-A*02:17 (setting [20]) was 6.25; in the experiment with HLA-A*32:01 it was 6.31.

In turn, VETYVLSII showed a pKd with HLA-B*40:01 (source organism: Influenza A virus (A/parakeet/Chiba/1/97(H9N2))) of 7.89.

Consider TELRTFSIL, for which the pIC50 with HLA-A*02:01 [8] is no more than 3.40; with HLA-A*24:02 it was 5.07; in the experiment with HLA-B*07:02, 4.30.

As for HEAEYNLSL, the pKd with HLA-B*39:01 (setting [21]) is 8.72; in the experiment with HLA-B*40:01 (setting [21]) it was 8.34.

For MSLMTGEQF, in the experiment with HLA-B*58:01 (source organism: Bacillus anthracis str. A0488), the pKd was 7.78.

On to KTAVVVTRY, for which the pKd in the experiment with HLA-B*58:01 (setting [19]) is 7.44; in the experiment with HLA-B*15:01 [9], 6.17; in the experiment with HLA-A*03:01 [6], 6.17; with HLA-A*01:01 [7], 6.34.

In the case of RLITANPVV, the pKd in the experiment with HLA-A*02:03 [4] (setting [16]) is 7.44; with HLA-A*02:17 (setting [20]), 6.28; in the experiment with HLA-A*02:06 (setting [16]), 7.19.

As to RMVLAFITFL, the negative logarithm of the Kd (pKd) in the experiment with HLA-A*02:17 (setting [22]) is 8.75; with HLA-A*02:01 [2] (setting [22]), 8.49.

RLRRRRHPL: the values for the negative-log Kd (pKd) with HLA-B*08:02 (setting [23]), with HLA-C*06:02 and with HLA-A*02:01 [1] (setting [23]) were 5.93, no more than 4.70 and no more than 4.70, respectively.

Consider FEANALSVI, for which the pKd with HLA-B*39:01 (setting [24]) was 5.42; with HLA-B*40:01 (setting [24]), 8.01.

Take ETESATLFT: the negative-log Kd (pKd) in the experiment with HLA-A*02:03 [10], with HLA-A*02:12, with HLA-A*68:02, in the experiment with HLA-A*23:01, with HLA-A*02:19 and with HLA-A*24:03 was no more than 4.70 in each case. The pKd with HLA-A*03:01 [11] was no more than 4.70; with HLA-A*01:01 [12], 6.23; with HLA-B*27:03, no more than 4.70; with HLA-A*02:01 [1] (setting [25]), no more than 4.70; in the experiment with HLA-B*15:17, no more than 4.70; with HLA-B*51:01 it was no more than 4.70. For the same sequence, the pKd with HLA-B*46:01, with HLA-B*18:01, with HLA-B*57:01, with HLA-B*39:01 (setting [25]) and in the experiment with HLA-A*26:01 [5] (setting [25]) was no more than 4.70 in each case.

IASLTGWQW: the pKd with HLA-B*15:01 [13] was 4.80; with HLA-B*58:01 (source organism: Mycobacterium tuberculosis variant bovis BCG str. Pasteur 1173P2), 9.22.

LLLGLMILLT: the pKd with HLA-A*02:17 (setting [20]) was 6.16; with HLA-A*02:01 [2] (setting [20]) it was 5.78.

In turn, GEMLVATSL had a pKd in the experiment with HLA-B*40:01 (setting [19]) of 8.38.

In the case of GPAAEGIYI, in the experiment with HLA-B*07:02, the pIC50 was 4.22.

With TLGMCCIITA, the pKd in the experiment with HLA-A*02:17 (setting [17]) is 4.77; in the experiment with HLA-A*02:01 [2] (setting [17]), 7.17.

Sequence GEVRGYLVK had a pKd with HLA-B*40:01 (source organism: Escherichia coli O139:H28 str. E24377A) of no more than 4.70.

As to DLKRKFYTL, the pKd in the experiment with HLA-B*08:02 (source organism: Campylobacter jejuni subsp. jejuni 81116) is 6.81.

For the sequence LQMENKAWLV, the pKd with HLA-A*02:17 (setting [26]) was 6.85; in the experiment with HLA-A*02:01 [2] (setting [26]), 8.00; with HLA-A*02:06 (setting [27]), 8.93; with HLA-B*08:01 (setting [27]) it was 5.17.

ELKGMSYAM: the figures for the pKd with HLA-B*08:02 (source organism: dengue virus type 3) and with HLA-A*26:01 [14] were no more than 4.70 and 5.76, respectively.
